Data taken from patent publication US20250320281A1.

Assays:
Assay in all cases: cell-based or functional assay
[1] = target: HIV-1 Env of isolate 92RW008 (subtype A) (HIV-1)
[2] = target: HIV-1 Env of isolate 92TH021 (subtype AE) (HIV-1)
[3] = target: HIV-1 Env of isolate 92UG031 (subtype A) (HIV-1)
[4] = target: HIV-1 Env of isolate 92UG037 (subtype A) (HIV-1)
[5] = target: HIV-1 Env of isolate 92WR009 (subtype A) (HIV-1)
[6] = target: HIV-1 Env of isolate 92WR020 (subtype A) (HIV-1)
[7] = target: HIV-1 Env of isolate 92WR021 (subtype A) (HIV-1)
[8] = target: HIV-1 Env of isolate 92WR024 (subtype A) (HIV-1)
[9] = target: HIV-1 Env of isolate 92WR026 (subtype A) (HIV-1)
[10] = target: HIV-1 Env of isolate 93UG077 (subtype A) (HIV-1)
[11] = target: HIV-1 Env of isolate 93WR029 (subtype A) (HIV-1)
[12] = target: HIV-1 Env of isolate 94 KE 105 (subtype AC) (HIV-1)
[13] = target: HIV-1 Env of isolate 94UG103 (subtype A) (HIV-1)
[14] = target: HIV-1 Env of isolate CMU02 (subtype AE) (HIV-1)
[15] = target: HIV-1 Env of isolate MGRM-AE-001 (subtype AE) (HIV-1)
[16] = target: HIV-1 Env of isolate MGRM-AE-002 (subtype AE) (HIV-1)
[17] = target: HIV-1 Env of isolate MGRM-AE-003 (subtype AE) (HIV-1)
[18] = target: HIV-1 Env of isolate MGRM-AE-004 (subtype AE) (HIV-1)
[19] = target: HIV-1 Env of isolate MGRM-AE-005 (subtype AE) (HIV-1)
[20] = target: HIV-1 Env of isolate MGRM-AE-006 (subtype AE) (HIV-1)
[21] = target: HIV-1 Env of isolate MGRM-G-001 (HIV-1)
[22] = target: HIV-1 Env of isolate MGRM-G-004 (HIV-1)
[23] = target: HIV-1 Env of isolate MGRM-G-006 (HIV-1)
[24] = target: HIV-1 Env of isolate MGRM-G-009 (HIV-1)
[25] = target: HIV-1 Env of isolate MGRM-G-011 (HIV-1)
[26] = target: HIV-1 Env of isolate MGRM-G-013 (HIV-1)
[27] = target: HIV-1 Env of isolate MGRM-G-014 (HIV-1)
[28] = target: HIV-1 Env of isolate MGRM-G-015 (HIV-1)
[29] = target: HIV-1 Env of isolate MGRM-G-016 (HIV-1)
[30] = target: HIV-1 Env of isolate MGRM-G-017 (HIV-1)
[31] = target: HIV-1 Env of isolate MGRM-G-019 (HIV-1)
[32] = target: HIV-1 Env of isolate MGRM-G-024 (HIV-1)
[33] = target: HIV-1 Env of isolate MGRM-G-025 (HIV-1)
[34] = target: HIV-1 Env of isolate MGRM-G-027 (HIV-1)
[35] = target: HIV-1 Env of isolate MGRM-G-028 (HIV-1)
[36] = target: HIV-1 Env of isolate VLGCA1 (subtype A) (HIV-1)
[37] = target: HIV-1 envelope glycoprotein (Env) of isolate 6535.3 (HIV-1)
[38] = target: HIV-1 envelope glycoprotein (Env) of isolate 92BR020 (HIV-1)
[39] = target: HIV-1 envelope glycoprotein (Env) of isolate 93TH305 (HIV-1)
[40] = target: HIV-1 envelope glycoprotein (Env) of isolate APV_13 (HIV-1)
[41] = target: HIV-1 envelope glycoprotein (Env) of isolate APV_17 (HIV-1)
[42] = target: HIV-1 envelope glycoprotein (Env) of isolate APV_6 (HIV-1)
[43] = target: HIV-1 envelope glycoprotein (Env) of isolate CAAN.A2 (HIV-1)
[44] = target: HIV-1 envelope glycoprotein (Env) of isolate JR-FL (HIV-1)
[45] = target: HIV-1 envelope glycoprotein (Env) of isolate MGRM-Chronic-B-001 (HIV-1)
[46] = target: HIV-1 envelope glycoprotein (Env) of isolate MGRM-Chronic-B-002 (HIV-1)
[47] = target: HIV-1 envelope glycoprotein (Env) of isolate MGRM-Chronic-B-003 (HIV-1)
[48] = target: HIV-1 envelope glycoprotein (Env) of isolate MGRM-Chronic-B-004 (HIV-1)
[49] = target: HIV-1 envelope glycoprotein (Env) of isolate MGRM-Chronic-B-008 (HIV-1)
[50] = target: aMLV envelope (negative control pseudovirus)

Sequence of 4995_P16 (PGT-145) (antibody) (VH): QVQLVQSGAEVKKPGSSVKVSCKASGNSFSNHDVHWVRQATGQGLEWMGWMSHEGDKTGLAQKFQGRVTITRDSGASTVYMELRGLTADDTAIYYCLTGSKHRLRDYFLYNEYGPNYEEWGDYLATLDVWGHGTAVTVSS
Sequence of 4995_P16 (PGT-145) (antibody) (VL): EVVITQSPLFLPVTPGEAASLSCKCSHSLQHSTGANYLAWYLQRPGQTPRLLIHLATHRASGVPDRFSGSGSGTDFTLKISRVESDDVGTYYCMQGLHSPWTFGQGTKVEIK

Work on 4995_P16 (PGT-145) (antibody) yielded an IC50 (µg/mL), pseudovirus neutralization [1] of 0.4 µg/mL, an IC50 (µg/mL), pseudovirus neutralization [2] of 0.013 µg/mL and an IC50 (µg/mL), pseudovirus neutralization [3] of 3.22 µg/mL. For the same substance, the IC50 (µg/mL), pseudovirus neutralization [4] was 3.15 µg/mL, the IC50 (µg/mL), pseudovirus neutralization [5] was 0.026 µg/mL and the IC50 (µg/mL), pseudovirus neutralization [6] was 0.997 µg/mL. For the same substance, the IC50 (µg/mL), pseudovirus neutralization [7] was 1.62 µg/mL, the IC50 (µg/mL), pseudovirus neutralization [8] was 0.069 µg/mL and the IC50 (µg/mL), pseudovirus neutralization [9] was 1.45 µg/mL. The IC50 (µg/mL), pseudovirus neutralization [10] was over 50 µg/mL, the IC50 (µg/mL), pseudovirus neutralization [11] was over 50 µg/mL and the IC50 (µg/mL), pseudovirus neutralization [12] was 1.32 µg/mL. It also gave an IC50 (µg/mL), pseudovirus neutralization [13] of 0.331 µg/mL, an IC50 (µg/mL), pseudovirus neutralization [14] of 1.43 µg/mL and an IC50 (µg/mL), pseudovirus neutralization [15] of 20.9 µg/mL. For the same substance, the IC50 (µg/mL), pseudovirus neutralization [16] was 1.87 µg/mL, the IC50 (µg/mL), pseudovirus neutralization [17] was 0.552 µg/mL and the IC50 (µg/mL), pseudovirus neutralization [18] was 0.006 µg/mL. For the same substance, the IC50 (µg/mL), pseudovirus neutralization [19] was 0.967 µg/mL, the IC50 (µg/mL), pseudovirus neutralization [20] was over 50 µg/mL and the IC50 (µg/mL), pseudovirus neutralization [21] was 0.028 µg/mL. It also gave an IC50 (µg/mL), pseudovirus neutralization [22] of over 50 µg/mL, an IC50 (µg/mL), pseudovirus neutralization [23] of 0.286 µg/mL and an IC50 (µg/mL), pseudovirus neutralization [24] of 0.982 µg/mL. For the same substance, the IC50 (µg/mL), pseudovirus neutralization [25] was 0.028 µg/mL, the IC50 (µg/mL), pseudovirus neutralization [26] was over 50 µg/mL and the IC50 (µg/mL), pseudovirus neutralization [27] was 0.144 µg/mL. It also gave an IC50 (µg/mL), pseudovirus neutralization [28] of 10.5 µg/mL, an IC50 (µg/mL), pseudovirus neutralization [29] of 0.081 µg/mL and an IC50 (µg/mL), pseudovirus neutralization [30] of 0.205 µg/mL. It also gave an IC50 (µg/mL), pseudovirus neutralization [31] of 0.041 µg/mL, an IC50 (µg/mL), pseudovirus neutralization [32] of 0.06 µg/mL and an IC50 (µg/mL), pseudovirus neutralization [33] of over 50 µg/mL. The IC50 (µg/mL), pseudovirus neutralization [34] was 0.433 µg/mL, the IC50 (µg/mL), pseudovirus neutralization [35] was 0.046 µg/mL and the IC50 (µg/mL), pseudovirus neutralization [36] was 8.01 µg/mL. The IC50 (µg/mL), pseudovirus neutralization [37] was over 50 µg/mL, the IC50 (µg/mL), pseudovirus neutralization [38] was 1.05 µg/mL and the IC50 (µg/mL), pseudovirus neutralization [39] was 0.032 µg/mL. It also gave an IC50 (µg/mL), pseudovirus neutralization [40] of 0.337 µg/mL, an IC50 (µg/mL), pseudovirus neutralization [41] of 0.488 µg/mL and an IC50 (µg/mL), pseudovirus neutralization [42] of 0.104 µg/mL. For the same substance, the IC50 (µg/mL), pseudovirus neutralization [43] was 7.08 µg/mL, the IC50 (µg/mL), pseudovirus neutralization [44] was 30.4 µg/mL and the IC50 (µg/mL), pseudovirus neutralization [45] was 3.22 µg/mL. For the same substance, the IC50 (µg/mL), pseudovirus neutralization [46] was 3.67 µg/mL, the IC50 (µg/mL), pseudovirus neutralization [47] was 0.045 µg/mL and the IC50 (µg/mL), pseudovirus neutralization [48] was 0.023 µg/mL. It also gave an IC50 (µg/mL), pseudovirus neutralization [49] of 1.9 µg/mL and an IC50 (µg/mL), pseudovirus neutralization [50] of over 50 µg/mL.
